According to the Immune Epitope Database (IEDB):

Assays:
HLA-A*23:01 = test: IEDB peptide-MHC binding, purified MHC/competitive/radioactivity; filed as Kd, often an IC50 or EC50 that approximates it; ≥ and ≤ were set here for values at or beyond the usual limits of such assays
HLA-A*24:02 [1] = test: as above
HLA-A*02:01 = test: IEDB peptide-MHC binding, purified MHC/competitive/fluorescence; ≥ and ≤ were set here for values at or beyond the usual limits of such assays; conditions: source organism: Sudan ebolavirus
HLA-A*24:02 [2] = test: as above
HLA-B*40:01 = test: IEDB peptide-MHC binding, purified MHC/competitive/radioactivity; filed as Kd, often an IC50 or EC50 that approximates it; ≥ and ≤ were set here for values at or beyond the usual limits of such assays
HLA-A*30:02 = test: as above
HLA-A*29:02 = test: as above
HLA-A*01:01 = test: as above
HLA-A*26:01 = test: as above
HLA-A*68:02 = test: as above
HLA-B*07:02 = test: as above; conditions: source organism: Dengue virus 2 Jamaica/1409/1983
HLA-B*51:01 = test: as above; conditions: source organism: Dengue virus 2 Jamaica/1409/1983
HLA-B*44:03 = test: as above; conditions: source organism: Dengue virus 1 Brazil/97-11/1997
[3] = source organism: Dengue virus 2 Jamaica/1409/1983
[4] = source organism: SARS coronavirus Tor2
[5] = source organism: Mammarenavirus juninense
[6] = source organism: Dengue virus 1 Brazil/97-11/1997
[7] = source organism: Mammarenavirus brazilense
[8] = source organism: Mammarenavirus lassaense

Q: Which Kd (HLA-A*23:01; [3]) does the source give for HWVPTSRTTW here?
A: 734 nM

Q: And the Kd (HLA-A*24:02 [1]; [3])?
A: 603 nM

Q: How did the IC50 (HLA-A*02:01) turn out when IAWIPYFGP was run?
A: 26900 nM

Q: What about the IC50 (HLA-A*24:02 [2]; source organism: Sudan ebolavirus) of the same sequence?
A: 55800 nM

Q: How did the Kd (HLA-B*40:01; [3]) turn out when IEAGRTLRVL was run?
A: 170 nM

Q: Which Kd (HLA-B*40:01; source organism: Dengue virus 3 Martinique/1243/1999) does the source give for IENSTANVSL here?
A: 6.06 nM

Q: Which IC50 (HLA-A*24:02 [2]; source organism: Variola virus) does the source give for ISHRPVVLT here?
A: 1370 nM

Q: For IVNAQPKCN, which IC50 (HLA-A*24:02 [2]; source organism: Zaire ebolavirus) is on record?
A: 8880 nM

Q: How did the Kd (HLA-A*23:01; [4]) turn out when KWADNNCYL was run?
A: 3410 nM

Q: What about the Kd (HLA-A*30:02; [4]) of the same sequence?
A: ≥ 78900 nM

Q: What about the Kd (HLA-A*29:02; [4]) of the same sequence?
A: ≥ 83300 nM

Q: And the Kd (HLA-A*01:01; [4])?
A: ≥ 78100 nM

Q: And the Kd (HLA-A*24:02 [1]; [4])?
A: 4920 nM

Q: And the Kd (HLA-A*26:01; [4])?
A: ≥ 77900 nM

Q: Which Kd (HLA-A*23:01; [5]) does the source give for LDHVNTLHF here?
A: 5070 nM

Q: What about the Kd (HLA-A*30:02; [5]) of the same sequence?
A: ≥ 46500 nM

Q: What about the Kd (HLA-A*29:02; [5]) of the same sequence?
A: ≥ 63800 nM

Q: And the Kd (HLA-A*01:01; [5])?
A: 19500 nM

Q: What about the Kd (HLA-A*24:02 [1]; [5]) of the same sequence?
A: 10500 nM

Q: And the Kd (HLA-A*26:01; [5])?
A: ≥ 77900 nM

Q: With LEENVEVEI as the sequence, how does the Kd (HLA-B*40:01; [3]) read?
A: 10.9 nM

Q: For LEIGKLPQHL, which Kd (HLA-B*40:01; [6]) is on record?
A: 145 nM

Q: Which IC50 (HLA-A*24:02 [2]; source organism: Vaccinia virus WR) does the source give for LGYCMIRWL here?
A: ≥ 78900 nM

Q: Which Kd (HLA-A*23:01; [6]) does the source give for LWEGSPGKFW here?
A: 2250 nM

Q: How did the Kd (HLA-A*23:01; [7]) turn out when LWEKLCYLI was run?
A: 265 nM

Q: And the Kd (HLA-A*29:02; [7])?
A: 4440 nM

Q: And the Kd (HLA-A*24:02 [1]; [7])?
A: 2880 nM

Q: With LYNSTFFSTF as the sequence, how does the Kd (HLA-A*23:01; [4]) read?
A: 0.965 nM

Q: What about the Kd (HLA-A*30:02; [4]) of the same sequence?
A: 1160 nM

Q: What about the Kd (HLA-A*29:02; [4]) of the same sequence?
A: 622 nM

Q: And the Kd (HLA-A*01:01; [4])?
A: 10300 nM

Q: What about the Kd (HLA-A*24:02 [1]; [4]) of the same sequence?
A: 0.635 nM

Q: And the Kd (HLA-A*26:01; [4])?
A: 834 nM

Q: For MAIGIVSILL, which Kd (HLA-A*68:02; [6]) is on record?
A: 15 nM

Q: MCPFLFLAV was tested. Which Kd (HLA-A*23:01; [8]) did it give?
A: ≥ 51100 nM

Q: What about the Kd (HLA-A*30:02; [8]) of the same sequence?
A: ≥ 31200 nM

Q: And the Kd (HLA-A*29:02; [8])?
A: 1690 nM

Q: And the Kd (HLA-A*01:01; [8])?
A: 492 nM

Q: And the Kd (HLA-A*24:02 [1]; [8])?
A: ≥ 77500 nM

Q: And the Kd (HLA-A*26:01; [8])?
A: ≥ 77900 nM

Q: How did the Kd (HLA-A*23:01; source organism: Dengue virus 4 Philippines/H241/1956) turn out when MGLLCLTLF was run?
A: 451 nM

Q: MILPMSRAF was tested. Which IC50 (HLA-A*24:02 [2]; source organism: Mus musculus) did it give?
A: 1750 nM

Q: Which Kd (HLA-B*07:02) does the source give for MPVTHSSAAQ here?
A: ≥ 20100 nM

Q: What about the Kd (HLA-B*51:01) of the same sequence?
A: ≥ 69600 nM

Q: With MVNGVVRLL as the sequence, how does the Kd (HLA-A*68:02; [3]) read?
A: 25.8 nM

Q: Which Kd (HLA-B*44:03) does the source give for NEVHTWTEQY here?
A: 137 nM

Q: Which Kd (HLA-A*23:01; [4]) does the source give for NIDATSTGNY here?
A: ≥ 70000 nM

Q: And the Kd (HLA-A*30:02; [4])?
A: 1420 nM

Q: And the Kd (HLA-A*29:02; [4])?
A: 5520 nM

Q: What about the Kd (HLA-A*01:01; [4]) of the same sequence?
A: 110 nM

Q: What about the Kd (HLA-A*24:02 [1]; [4]) of the same sequence?
A: ≥ 70300 nM

Q: And the Kd (HLA-A*26:01; [4])?
A: 897 nM

Q: With NLEKQIATL as the sequence, how does the Kd (HLA-A*68:02; source organism: Homo sapiens) read?
A: ≥ 26500 nM
